From IntAct's records for PubMed 20543138 come the findings set out here.

The labels stand for the following.
B1: General transcription factor 3C polypeptide 5 (Homo sapiens), Q9Y5Q8 (parent)
chain: MAAEAADLGLGAAVPVELRRERRMVCVEYPGVVRDVAKMLPTLGGEEGVSRIYADPTKRLELYFRPKDPYCHPVCANRFSTSSLLLRIRKRTRRQKGVLGTEAHSEVTFDMEILGIISTIYKFQGMSDFQYLAVHTEAGGKHTSMYDKVLMLRPEKEAFFHQELPLYIPPPIFSRLDAPVDYFYRPETQHREGYNNPPISGENLIGLSRARRPHNAIFVNFEDEEVPKQPLEAAAQTWRRVCTNPVDRKVEEELRKLFDIRPIWSRNAVKANISVHPDKLKVLLPFIAYYMITGPWRSLWIRFGYDPRKNPDAKIYQVLDFRIRCGMKHGYAPSDLPVKAKRSTYNYSLPITVKKTSSQLVTMHDLKQGLGPSGTSGARKPASSKYKLKDSVYIFREGALPPYRQMFYQLCDLNVEELQKIIHRNDGAENSCTERDGWCLPKTSDELRDTMSLMIRQTIRSKRPALFSSSAKADGGKEQLTYESGEDEEDEEEEEEEEEDFKPSDGSENEMETEILDYV

In this experiment the parent is B1. To be noted: with mtor_human MTOR.
With F109I, the “effect of a mutation on the interaction” value is recorded as “disrupting interaction”.
